The values that follow come from patent US20070178098A1.

Test [1] has as its target Fc-IL6Ralpha-IL6 (human IL-6Ralpha and IL-6; mouse Fc). Kind of test: cell-based or functional assay.
Another test deals with human IL-6 (human) (UniProt P05231). As to the kind of experiment: cell-based or functional assay.

A value given as a limit tells only on which side of the number the result lay.

Sequence of Fc-IL6Ralpha-IL6 (human IL-6Ralpha and IL-6; mouse Fc) (chain, as listed by the source limits assumed): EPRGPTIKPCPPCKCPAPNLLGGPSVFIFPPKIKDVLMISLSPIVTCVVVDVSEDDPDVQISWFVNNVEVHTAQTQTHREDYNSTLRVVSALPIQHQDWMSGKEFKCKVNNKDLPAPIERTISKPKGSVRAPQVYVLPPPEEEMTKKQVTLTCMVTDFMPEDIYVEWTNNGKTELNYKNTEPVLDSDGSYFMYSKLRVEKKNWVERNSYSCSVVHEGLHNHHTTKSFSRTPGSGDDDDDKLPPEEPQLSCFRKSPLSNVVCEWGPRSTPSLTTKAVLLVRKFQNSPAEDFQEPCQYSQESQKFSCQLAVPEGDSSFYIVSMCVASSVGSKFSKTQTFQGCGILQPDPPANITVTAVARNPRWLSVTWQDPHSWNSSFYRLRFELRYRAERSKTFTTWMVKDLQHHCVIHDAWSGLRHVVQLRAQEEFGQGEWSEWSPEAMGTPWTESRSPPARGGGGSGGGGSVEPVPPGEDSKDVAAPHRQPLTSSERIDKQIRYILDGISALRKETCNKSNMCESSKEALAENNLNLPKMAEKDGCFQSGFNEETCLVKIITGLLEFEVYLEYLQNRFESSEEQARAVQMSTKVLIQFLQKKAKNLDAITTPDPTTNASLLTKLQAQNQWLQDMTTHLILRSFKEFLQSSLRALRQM
Sequence of human IL-6 (human) (P05231 30-212 limits assumed): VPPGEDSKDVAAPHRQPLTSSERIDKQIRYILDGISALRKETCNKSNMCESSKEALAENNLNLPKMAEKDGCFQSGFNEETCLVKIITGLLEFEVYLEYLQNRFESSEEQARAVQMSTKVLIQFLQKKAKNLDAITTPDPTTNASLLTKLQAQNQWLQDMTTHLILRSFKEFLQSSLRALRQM

B1: CNTO-328 (antibody, INN chains, looked up, V domains shown)
VH: EVQLVESGGKLLKPGGSLKLSCAASGFTFSSFAMSWFRQSPEKRLEWVAEISSGGSYTYYPDTVTGRFTISRDNAKNTLYLEMSSLRSEDTAMYYCARGLWGYYALDYWGQGTSVTVSS
VL: QIVLIQSPAIMSASPGEKVTMTCSASSSVSYMYWYQQKPGSSPRLLIYDTSNLASGVPVRFSGSGSGTSYSLTISRMEAEDAATYYCQQWSGYPYTFGGGTKLEIK
On to B1, for which, in test [1], the 8 Hours % Inhibition of haptoglobin secretion in mice given Fc-IL6Rα-IL6 worked out at 12%, the 24 hours % Inhibition of haptoglobin secretion in mice given Fc-IL6Rα-IL6 is -3%, the Haptoglobin Inhibition IC50 (HepG2 cells stimulated with IL-6Rα-IL-6) was greater than 0.333 µg/mL and the LP-1 Proliferation IC50 (stimulated with Fc-IL6Ralpha-IL6) was found to be 1.61 µg/mL. In the test with human IL-6 (human), this molecule returned a Haptoglobin Inhibition IC50 (HepG2 cells stimulated with IL-6) of 0.00519 µg/mL and an LP-1 Proliferation IC50 (stimulated with IL-6) of 0.0101 µg/mL.
